According to patent publication US20050215503, “HIF oligonucleotide decoy molecules” (published 2005):

B1: decoy 815/816 (dsDNA)
DNA 1: GTGAGACGTGCGGCTTCCGTTTG
DNA 2: CAAACGGAAGCCGCACGTCTCAC
B2: decoy 899 (dsDNA)
DNA 1: CGAGCGTACGTGCCTCAGG
DNA 2: CCTGAGGCACGTACGCTCG
B3: decoy 807/808 (dsDNA)
DNA 1: TCTGTACGTGACCACACTCACCTC
DNA 2: GAGGTGAGTGTGGTCACGTACAGA
B4: decoy 965 (dsDNA)
DNA 1: CCAGCTTACGTGCCTCAGG
DNA 2: CCTGAGGCACGTAAGCTGG
B5: decoy 941 (dsDNA)
DNA 1: CCAGCGTACCTGCCTCAGG
DNA 2: CCTGAGGCAGGTACGCTGG
B6: decoy 947 (dsDNA)
DNA 1: CCAGCGTACGCGCCTCAGG
DNA 2: CCTGAGGCGCGTACGCTGG
B7: decoy 829/830 (dsDNA)
DNA 1: AGGAGACGTGCTGCCT
DNA 2: AGGCAGCACGTCTCCT
B8: decoy 975 (dsDNA)
DNA 1: CCACCGTACGTGCCTCAGG
DNA 2: CCTGAGGCACGTACGGTGG
B9: decoy 867/868 (dsDNA)
DNA 1: TCCGTACGTGCTGCAC
DNA 2: GTGCAGCACGTACGGA
B10: decoy 835/836 (dsDNA)
DNA 1: GGCCAGACGTGCCACCGG
DNA 2: CCGGTGGCACGTCTGGCC
B11: decoy 971 (dsDNA)
DNA 1: CCAGTGTACGTGCCTCAGG
DNA 2: CCTGAGGCACGTACACTGG
B12: decoy 911 (dsDNA)
DNA 1: CACAGCGTACGTGCTGTCTCA
DNA 2: TGAGACAGCACGTACGCTGTG
B13: decoy 893 (dsDNA)
DNA 1: CACGAGCGTACGTGCCTCAGG
DNA 2: CCTGAGGCACGTACGCTCGTG
B14: decoy 989 (dsDNA)
DNA 1: CCAGCGTACGTGCTTCAGG
DNA 2: CCTGAAGCACGTACGCTGG
B15: decoy 873/874 (dsDNA)
DNA 1: TCCGTACGTGCTGCGT
DNA 2: ACGCAGCACGTACGGA
B16: decoy 969 (dsDNA)
DNA 1: CCAGGGTACGTGCCTCAGG
DNA 2: CCTGAGGCACGTACCCTGG
B17: decoy 801/802 (dsDNA)
DNA 1: GCCCTACGTGCTGTCTCA
DNA 2: TGAGACAGCACGTAGGGC
B18: decoy 943 (dsDNA)
DNA 1: CCAGCGTACTTGCCTCAGG
DNA 2: CCTGAGGCAAGTACGCTGG
B19: decoy 963 (dsDNA)
DNA 1: CCAGCCTACGTGCCTCAGG
DNA 2: CCTGAGGCACGTAGGCTGG
B20: decoy 991 (dsDNA)
DNA 1: CCAGCGTACGTGCATCAGG
DNA 2: CCTGATGCACGTACGCTGG
B21: decoy 953 (dsDNA)
DNA 1: CCAGCGTACGTACCTCAGG
DNA 2: CCTGAGGTACGTACGCTGG
B22: decoy 977 (dsDNA)
DNA 1: CCAACGTACGTGCCTCAGG
DNA 2: CCTGAGGCACGTACGTTGG
B23: decoy 813/814 (dsDNA)
DNA 1: GCCCTACGTGCTGTCTCACACAGC
DNA 2: GCTGTGTGAGACAGCACGTAGGGC
B24: decoy 957 (dsDNA)
DNA 1: CCAGCGCACGTGCCTCAGG
DNA 2: CCTGAGGCACGTGCGCTGG
B25: decoy 859/860 (dsDNA)
DNA 1: ACCGTACGTGCTGATC
DNA 2: GATCAGCACGTACGGT
B26: decoy 951 (dsDNA)
DNA 1: CCAGCGTACGTCCCTCAGG
DNA 2: CCTGAGGGACGTACGCTGG
B27: decoy 979 (dsDNA)
DNA 1: CCATCGTACGTGCCTCAGG
DNA 2: CCTGAGGCACGTACGATGG
B28: decoy 931 (dsDNA)
DNA 1: CCAGCGTCCGTGCCTCAGG
DNA 2: CCTGAGGCACGGACGCTGG
B29: decoy 927 (dsDNA)
DNA 1: CCAGCGTTCGTGCCTCAGG
DNA 2: CCTGAGGCACGAACGCTGG
B30: decoy 945 (dsDNA)
DNA 1: CCAGCGTACGAGCCTCAGG
DNA 2: CCTGAGGCTCGTACGCTGG
B31: decoy 995 (dsDNA)
DNA 1: CCAGCGTACGTGCCGCAGG
DNA 2: CCTGCGGCACGTACGCTGG
B32: decoy 987 (dsDNA)
DNA 1: CCAGCGTACGTGCGTCAGG
DNA 2: CCTGACGCACGTACGCTGG
B33: decoy 955 (dsDNA)
DNA 1: CCAGCGTACGTTCCTCAGG
DNA 2: CCTGAGGAACGTACGCTGG
B34: decoy 833/834 (dsDNA)
DNA 1: TCCAATGCGTGCAGTACT
DNA 2: AGTACTGCACGCATTGGA
B35: decoy 973 (dsDNA)
DNA 1: CCAGAGTACGTGCCTCAGG
DNA 2: CCTGAGGCACGTACTCTGG
B36: decoy 929 (dsDNA)
DNA 1: CCAGCGTGCGTGCCTCAGG
DNA 2: CCTGAGGCACGCACGCTGG
B37: decoy 871/872 (dsDNA)
DNA 1: ACCGTACGTGCTGCCA
DNA 2: TGGCAGCACGTACGGT
B38: decoy 993 (dsDNA)
DNA 1: CCAGCGTACGTGCCACAGG
DNA 2: CCTGTGGCACGTACGCTGG
B39: decoy 939 (dsDNA)
DNA 1: CCAGCGTACATGCCTCAGG
DNA 2: CCTGAGGCATGTACGCTGG
B40: decoy 959 (dsDNA)
DNA 1: CCAGCGAACGTGCCTCAGG
DNA 2: CCTGAGGCACGTTCGCTGG
B41: decoy 821/822 (dsDNA)
DNA 1: CGCGAGCGTACGTGCCTCAGG
DNA 2: CCTGAGGCACGTACGCTCGCG
B42: decoy 855/856 (dsDNA)
DNA 1: GTGTGTACGTGCAGGAAA
DNA 2: TTTCCTGCACGTACACAC
B43: decoy 877/878 (dsDNA)
DNA 1: ACCGTACGTGCTGCTA
DNA 2: TAGCAGCACGTACGGT
B44: decoy 967 (dsDNA)
DNA 1: CCAGCATACGTGCCTCAGG
DNA 2: CCTGAGGCACGTATGCTGG
B45: decoy 961 (dsDNA)
DNA 1: CCAGCGGACGTGCCTCAGG
DNA 2: CCTGAGGCACGTCCGCTGG
B46: decoy 805/806 (dsDNA)
DNA 1: CCCCCTCGGACGTGACTCGGACCAC
DNA 2: GTGGTCCGAGTCACGTCCGAGGGGG
B47: decoy 949 (dsDNA)
DNA 1: CCAGCGTACGGGCCTCAGG
DNA 2: CCTGAGGCCCGTACGCTGG
B48: decoy 831/832 (dsDNA)
DNA 1: TCCAATACGTGCAGTACT
DNA 2: AGTACTGCACGTATTGGA
B49: decoy 905 (dsDNA)
DNA 1: GATCGCCCTACGTGCTGTCTCAGATC
DNA 2: GATCTGAGACAGCACGTAGGGCGATC
B50: decoy 847/848 (dsDNA)
DNA 1: GGAACAACGTGGAATTAG
DNA 2: CTAATTCCACGTTGTTCC
B51: decoy 837/838 (dsDNA)
DNA 1: AGGCAACGTGCAGCCG
DNA 2: CGGCTGCACGTTGCCT

Biological target: HIF-1 (HIF-1alpha/HIF-1beta (ARNT) heterodimer) (Homo sapiens?, UniProt Q16665;P27540 Q16665:1-826,P27540:2-789)
Sequence (Q16665 whole entry, chain 1 of 2): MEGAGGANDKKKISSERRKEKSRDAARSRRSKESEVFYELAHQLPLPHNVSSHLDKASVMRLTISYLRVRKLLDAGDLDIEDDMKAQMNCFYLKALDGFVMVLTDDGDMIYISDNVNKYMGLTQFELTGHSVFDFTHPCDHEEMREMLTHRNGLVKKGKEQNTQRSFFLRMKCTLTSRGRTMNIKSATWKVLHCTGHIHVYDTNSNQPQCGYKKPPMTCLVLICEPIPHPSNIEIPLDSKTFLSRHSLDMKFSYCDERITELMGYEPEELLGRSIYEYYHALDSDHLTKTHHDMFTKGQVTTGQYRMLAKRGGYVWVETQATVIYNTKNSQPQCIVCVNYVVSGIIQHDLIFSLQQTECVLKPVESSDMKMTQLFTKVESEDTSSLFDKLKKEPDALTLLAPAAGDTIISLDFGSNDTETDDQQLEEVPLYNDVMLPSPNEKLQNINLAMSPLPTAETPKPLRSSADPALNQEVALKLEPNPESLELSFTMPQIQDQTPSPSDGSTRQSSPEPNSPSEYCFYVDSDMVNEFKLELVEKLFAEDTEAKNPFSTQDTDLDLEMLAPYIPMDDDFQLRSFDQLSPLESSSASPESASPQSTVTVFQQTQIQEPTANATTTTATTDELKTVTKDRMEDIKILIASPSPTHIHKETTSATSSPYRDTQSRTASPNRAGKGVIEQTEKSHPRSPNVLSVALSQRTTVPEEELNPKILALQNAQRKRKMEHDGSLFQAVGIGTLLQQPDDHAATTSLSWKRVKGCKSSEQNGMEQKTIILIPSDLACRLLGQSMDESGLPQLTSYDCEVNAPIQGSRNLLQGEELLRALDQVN
Sequence (P27540 2-789, chain 2 of 2): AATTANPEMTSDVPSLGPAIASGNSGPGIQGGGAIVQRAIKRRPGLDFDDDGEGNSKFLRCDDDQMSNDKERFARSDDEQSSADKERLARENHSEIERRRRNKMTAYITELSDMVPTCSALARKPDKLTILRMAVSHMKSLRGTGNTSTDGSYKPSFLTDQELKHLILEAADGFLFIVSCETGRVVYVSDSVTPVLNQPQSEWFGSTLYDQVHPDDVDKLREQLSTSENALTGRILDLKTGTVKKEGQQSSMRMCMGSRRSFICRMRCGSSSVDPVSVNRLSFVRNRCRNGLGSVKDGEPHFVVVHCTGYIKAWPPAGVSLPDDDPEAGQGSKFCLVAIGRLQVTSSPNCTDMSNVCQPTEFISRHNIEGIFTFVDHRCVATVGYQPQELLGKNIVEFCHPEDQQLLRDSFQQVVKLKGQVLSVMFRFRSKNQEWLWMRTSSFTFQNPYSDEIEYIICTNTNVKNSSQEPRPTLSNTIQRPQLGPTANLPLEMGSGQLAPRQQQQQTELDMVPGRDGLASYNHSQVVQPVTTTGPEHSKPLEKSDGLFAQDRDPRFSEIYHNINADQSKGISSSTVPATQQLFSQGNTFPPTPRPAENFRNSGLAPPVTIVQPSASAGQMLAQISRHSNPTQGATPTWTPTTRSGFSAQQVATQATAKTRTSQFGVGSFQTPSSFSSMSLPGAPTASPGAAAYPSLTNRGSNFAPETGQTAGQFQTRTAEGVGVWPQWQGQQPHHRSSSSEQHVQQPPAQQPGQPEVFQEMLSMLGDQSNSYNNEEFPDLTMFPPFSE
Assay: competition; TransAM
Conditions: protein: extract; tags: none (endogenous, nuclear extract)
Procedure: To assess the relative affinities of oligonucleotides for a HIF-1α containing complex, the HIF-1 TransAM assay (Active Motif, Catalog # 47096) was utilized. The assay was performed according to manufacturer's instructions. Briefly, a double-stranded oligonucletide containing the hypoxia response element (HRE) was immobilized on a 96-well plate. A nuclear extract containing HIF-1α complexes was incubated and allowed to bind to the immobilized oligonucleotide. The unbound material was washed away and the bound HIF-1α detected using an antibody that specificially recognizes HIF-1α. The anti-HIF-1α antibody was detected by a secondary antibody labeled with horseradish peroxidase (HRP), and the amount of HRP in each well was measured using a calorimetric substrate reaction and read using a microplate spectrophotometer.
The ability of candidate decoy molecules to compete for binding of HIF-1α to the HRE element-immobilized on the plate were measured and compared to reveal relative binding affinities. Candidate decoys were added in increasing molar ratios (relative to the amount of oligo immobilized on the plate) to compete for binding to the HIF-1α containing complexes. The amounts of decoys added to the assay included 0.625, 1.25, 2.5, 5, 10 and 20 fold molar excess. A well containing a competing decoy able to bind HIF-1α with high affinity would give a lower absorbance reading as compared to a decoy with low affinity for HIF-1α. All potential decoys were then compared and ranked in order to assess their relative binding affinities.
The screen was conducted using different decoy concentrations. For each UV absorbance reading, normalization was done by calculating the ratio of absorbance readings of sample vs. wild type control. The bigger ratio represents less competition of binding with HIF-1α when compared with wild-type control. The smaller (smaller than 1.0 or close to 1.0) ratios represent better binding or better competition.

In order of falling binding signal:
1. B7  5.12 ratio
2. B23  4.6 ratio
3. B1  4.43 ratio
4. B17  4 ratio
5. B51  3.74 ratio
6. B5  3.45 ratio
7. B28  3.44 ratio
8. B48  3.36 ratio
9. B29  3.16 ratio
10. B30  3.14 ratio
11. B34  3.05 ratio
12. B50  3.02 ratio
13. B6  2.94 ratio
14. B39  2.93 ratio
15. B10  2.91 ratio
16. B26  2.91 ratio
17. B18  2.83 ratio
18. B3  2.76 ratio
19. B47  2.73 ratio
20. B21  2.67 ratio
21. B9  2.63 ratio
22. B33  2.4 ratio
23. B25  2.37 ratio
24. B36  2.35 ratio
25. B15  2.33 ratio
26. B43  2.23 ratio
27. B37  2.21 ratio
28. B40  2.07 ratio
29. B16  1.67 ratio
30. B45  1.65 ratio
31. B8  1.63 ratio
32. B4  1.61 ratio
33. B49  1.54 ratio
34. B44  1.53 ratio
35. B22  1.43 ratio
36. B24  1.41 ratio
37. B27  1.41 ratio
38. B2  1.34 ratio
39. B35  1.34 ratio
40. B41  1.33 ratio
41. B14  1.21 ratio
42. B19  1.17 ratio
43. B12  1.16 ratio
44. B32  1.16 ratio
45. B46  1.13 ratio
46. B42  1.07 ratio
47. B11  1.05 ratio
48. B20  1.02 ratio
49. B13  0.94 ratio
50. B38  0.93 ratio
51. B31  0.92 ratio
